For the test, the target named is T1, murine PD-1 receptor (mouse, UniProt Q02242 25-288).
T1 construct: Endogenous protein in tissue lysates, detected as a 50 kDa band on a western blot; also called mouse PD-1; mouse PD-1 receptor
T1 sequence (looked up): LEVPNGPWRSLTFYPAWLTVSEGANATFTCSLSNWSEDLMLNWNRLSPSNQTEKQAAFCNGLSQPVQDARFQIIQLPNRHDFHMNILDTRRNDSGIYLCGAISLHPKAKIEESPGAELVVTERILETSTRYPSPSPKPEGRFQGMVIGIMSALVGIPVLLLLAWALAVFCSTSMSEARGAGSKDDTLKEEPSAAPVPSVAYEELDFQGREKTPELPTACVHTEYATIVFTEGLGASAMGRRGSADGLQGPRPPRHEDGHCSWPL
Kind of test: western blot of mouse liver and lung lysates probed with nivolumab. A general note: Immunoblotting shows a protein as a band on a membrane.

B1: human recombinant Nivolumab (Thermofischer MA5-41974) (antibody, human IgG4 S228P, kappa, V domains shown)
VH: QVQLVESGGGVVQPGRSLRLDCKASGITFSNSGMHWVRQAPGKGLEWVAVIWYDGSKRYYADSVKGRFTISRDNSKNTLFLQMNSLRAEDTAVYYCATNDDYWGQGTLVTVSS
VL: EIVLTQSPATLSLSPGERATLSCRASQSVSSYLAWYQQKPGQAPRLLIYDASNRATGIPARFSGSGSGTDFTLTISSLEPEDFAVYYCQQSSNWPRTFGQGTKVEIKR
notes: Bought reagent, described as a fully humanized monoclonal antibody produced in mammalian cells such as HEK293; also called human Nivolumab; mammalian cell produced nivolumab (anti-PD1)
Regarding B1, the binding result was “binds”.

The values above are taken from patent EP4613280A1 (Plantibodies, dated 2025).
